Consider two molecules from US20030078373A1 (published 2003).

Assay [1] has as its target T1, rhodanese (UniProt P00586 2-297).
T1 construct: also called unfolded rhodanese
T1 sequence: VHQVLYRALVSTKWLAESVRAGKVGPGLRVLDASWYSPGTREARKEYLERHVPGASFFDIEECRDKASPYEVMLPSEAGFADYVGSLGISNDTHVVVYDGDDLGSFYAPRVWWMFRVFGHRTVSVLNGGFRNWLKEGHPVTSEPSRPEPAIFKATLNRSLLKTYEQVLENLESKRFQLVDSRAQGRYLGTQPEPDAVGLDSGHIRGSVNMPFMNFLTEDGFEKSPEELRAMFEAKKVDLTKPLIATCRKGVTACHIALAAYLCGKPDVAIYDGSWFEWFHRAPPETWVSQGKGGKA
The experiment in a line: estimated from the molar ratio giving maximal refolding yield of rhodanese.

Assay [2] has as its target T2, barnase (UniProt P00648 48-157). The experiment in a line: derived from the change from EX2 to EX1 amide proton exchange of barnase (NMR).
The target of assay [3] is T2, barnase. Description: derived from amide proton exchange of barnase (NMR); reference value for intact GroEL from the literature.
Another assay has as its target cyclophilin A (UniProt P62937 1-165). The experiment in a line: cell-based or functional assay.
The target of assay [4] is T1, rhodanese. Description: cell-based or functional assay.

T2 sequence (P00648 48-157): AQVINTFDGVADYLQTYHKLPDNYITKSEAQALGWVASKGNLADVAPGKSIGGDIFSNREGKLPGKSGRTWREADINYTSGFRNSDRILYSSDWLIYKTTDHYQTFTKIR

B1: sht-GroEL 191-376 (other)
chain: EGMQFDRGYLSPYFINKPETGAVELESPFILLADKKISNIREMLPVLEAVAKAGKPLLIIAEDVEGEALATLVVNTMRGIVKVAAVKAPGFGDRRKAMLQDIATLTGGTVISEEIGMELEKATLEDLGQAKRVVINKDTTTIIDGVGEEAAIQGRVAQIRQQIEEATSDYDREKLQERVAKLAGGV
For B1, the Kd with rhodanese [1] was above 100 nM. In the assay with barnase [2], this molecule gave a koff of around 2 s⁻¹. Also, the “fold of the dissociation rate constant over that from intact GroEL” value in the assay with barnase [3] was below 5 fold. The “refolding of inactivated cyclophilin A” value in the assay with cyclophilin A was determined as 100%. The “rhodanese refolding activity after 25 mins” value in the assay with rhodanese [4] is around 40%.

B2: sht-GroEL 191-345 (other)
chain: EGMQFDRGYLSPYFINKPETGAVELESPFILLADKKISNIREMLPVLEAVAKAGKPLLIIAEDVEGEALATLVVNTMRGIVKVAAVKAPGFGDRRKAMLQDIATLTGGTVISEEIGMELEKATLEDLGQAKRVVINKDTTTIIDGVGEEAAIQGR
Regarding B2, the “refolding of inactivated cyclophilin A” value in the assay with cyclophilin A amounted to 100%. Moreover, in the assay with rhodanese [4], the rhodanese refolding activity is around 42.5%, the “rhodanese refolding activity above background refolding” value was around 37.5% and the “rhodanese refolding activity at about 25 mins” value is around 50%.

Usually Kd stands for the free concentration of one partner at which half of the binding sites on the other are occupied at equilibrium, for simple one-to-one binding. By koff is commonly meant the rate constant with which the complex falls apart. A higher koff goes with a short-lived complex.
